Measurements from PMC7937711, “Development and Characterization of Nanobodies Targeting the Kupffer Cell” (Frontiers in Immunology, 2021).
Where a chain is given by its changes, count along the chain named.

T1: recombinant mouse Clec4F (CLEC4F/CLECSF13), soluble extracellular domain Ala65-Gly548 (mouse) (UniProt P70194)
T1 sequence: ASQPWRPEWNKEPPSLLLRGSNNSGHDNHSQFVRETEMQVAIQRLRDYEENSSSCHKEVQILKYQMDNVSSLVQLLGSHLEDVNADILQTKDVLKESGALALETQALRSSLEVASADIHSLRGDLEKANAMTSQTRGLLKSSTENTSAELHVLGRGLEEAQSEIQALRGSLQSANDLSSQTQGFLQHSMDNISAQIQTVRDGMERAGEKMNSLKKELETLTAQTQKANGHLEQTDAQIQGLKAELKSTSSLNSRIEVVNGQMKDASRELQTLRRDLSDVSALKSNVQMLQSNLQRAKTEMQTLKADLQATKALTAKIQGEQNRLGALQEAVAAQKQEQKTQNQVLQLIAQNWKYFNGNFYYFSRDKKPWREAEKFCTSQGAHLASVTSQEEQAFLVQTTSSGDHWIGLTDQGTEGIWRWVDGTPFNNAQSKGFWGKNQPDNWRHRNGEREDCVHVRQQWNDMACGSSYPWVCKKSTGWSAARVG

B1: Nb 4.39 (VHH)
VHH: DVQLVESGGGLVQPGGSLRLSCAASGSNVDIATISWYRQGTGNQREFVAYITPRGNTLYGASVTGRFTISRDNAKNTVYLQMNSLRFDDTAVYYCNVARLGRNYWGQGTQVTVSS
B2: Nb 7.24 (VHH)
VHH: QVQLVESGGGLVQPGGSLRLSCAASGFTLDYYAIGWFRQAPGKEREGVSCIASDGGSTKYADSVKGRFTISRDSAKNTVYLQMNSLKPEDTAIYYCAAGRPGYCSGYALKEIYPYRDWGQGTQVTVSS
B3: Nb 10.63 (VHH)
VHH: QVQLVESGGGLVQAGGSLRLSCAASGRTFSDYNMGWFRQAPGKEREFVATISRSGAGTYYTDSVKGRFTISRDNAKNTVYLQMNNLKPEDSAAYYCAATLRVALSTITVGGYDYWGQGTQVTVSS
B4: Nb3.60 (VHH)
VHH: QVQLVESGGGLVQPGGSLRLSCVASGTIFSMYGVYWYRQAPGNQREVVAWISSSGNTNYVNAVKGRFTISRDNAKNTTWLQMHSLKPEDAAVYYCRLGMNYWGKGTQVTVSS
notes: The preparation held dimers beside monomers (SDS-PAGE); also called R2-60; group G3; source: E. coli WK6 periplasm, purified (IMAC Ni-NTA, dialysis)
B5: Nb1.46 (VHH)
VHH: QVQLVESGGGLVQAGGSLRLSCAASGRTFSSYAMGWFRQAPGKERECVAAMDWSTSATYYADSVKGRFTISRDNAKNTVYLQMNSLKPEDTAVYYCAADLDYSDYGPFPGDMDYWGKGTQVTVSS
notes: The preparation held dimers beside monomers (SDS-PAGE); extra cysteine at position 52 (IMGT); also called R2-46; group G1; source: E. coli WK6 periplasm, purified (IMAC Ni-NTA, dialysis); not shown: His6, C-terminal, kept
B6: Nb6.39 (VHH)
VHH: QVQLVESGGGLVQPGGSLRLSCAASGFTFSTYAMRWVRQAPGKGLEWVSDINQGGGVTSYRDSVLGRFTISRDDAKNTLYLQMNSLKREDTAVYYCTNGRSRGQGTQVTVSS
notes: also called R3-39; group G6; source: E. coli WK6 periplasm, purified (IMAC Ni-NTA, dialysis)
B7: Nb14.70 (VHH)
VHH: QVQLVESGGGLVQAGDSLSLVCTLPERSRFAVGWFRQASGKEREIVAAISWLGMNEYYGDSVKGRSTISRDNAKNTVRLQMDSLKREDTAVYYCAADYSLDNVRRTPRFWGQGTQVTVSS
B8: Nb2.22 (VHH)
VHH: QVQLVESGGGLVQAGGSLRLSCAASGATFITYGMTWFRQAPGKEREFVAAVTGNGAGTTYLPSVKGRFTISRDNAKNTVYLQMSSLKPEDTAVYYCGGRRWVPATAVDQVAYWGQGTQVTVSS
notes: Labelled with 99mTc through its His tag for the biodistribution test only; also called R3-22; group G2; source: E. coli WK6 periplasm, purified (IMAC Ni-NTA, dialysis; size exclusion chromatography for the later tests); not shown: His6, C-terminal, kept
B9: Nb6.4 (VHH)
VHH: QVQLVESGGGLVQPGGSLTLSCAASGFTISNYAMKWDRQAPGKGFEWVSTINSDGDNTSYRDSVKGRFTISRDNAKNTLYLQMNSLKPEDTAVYYCSNGGRRGQGTQVTVSS
notes: also called R3-4; group G6; source: E. coli WK6 periplasm, purified (IMAC Ni-NTA, dialysis)
B10: Nb6.18 (VHH)
VHH: DVQLGESGGGLVQPGGSLRLSCAASGFTFSSYAMRWVRQAPGKALEWVADINSSGAYTNYRDSVTGRFIISRDNVKNTLYLQMDNMKPEDTAVYYCTTGGQRGQGTQVTVSS
notes: also called R3-18; group G6; source: E. coli WK6 periplasm, purified (IMAC Ni-NTA, dialysis)
B11: Nb6.19 (VHH)
VHH: B6 VHH with Q1D, F29L, Q53S, G56D, T58M, L65K, R88P, R100W
notes: also called R2-19; group G6; source: E. coli WK6 periplasm, purified (IMAC Ni-NTA, dialysis)
B12: Nb8.37 (VHH)
VHH: QVQLVESGGGLVQPGGSLRLSCAASGLTLDYLRIAWFRQAPGKKRERVSCISITEGSANYADSVKGRFTISRDNAKNTVFLQMNSLKPEDTAVYYCAARRYYCSGTPTDYAYWGQGTQVTVSS
notes: Labelled with 99mTc through its His tag for the biodistribution test only; also called R3-37; group G8; source: E. coli WK6 periplasm, purified (IMAC Ni-NTA, dialysis; size exclusion chromatography for the later tests); not shown: His6, C-terminal, kept
B13: Nb9.15 (VHH)
VHH: QVQLVESGGGLVQPGGSLRLSCAASGFSLASRTIAWFRQAPGKEREGVSCISRSGAFTNNADSVKGRFTISRDNAKNTVYLQMNSLKPEDTADYYCAVTSSWYSTCLRESIYDSWGQGTQVTVSS
notes: also called R3-15; group G9; source: E. coli WK6 periplasm, purified (IMAC Ni-NTA, dialysis)
B14: Nb10.16 (VHH)
VHH: B3 VHH with Q1D, Q13E, A14P, S54N, T58S
notes: Labelled with 99mTc through its His tag for the biodistribution test only; also called R2-16; group G10; source: E. coli WK6 periplasm, purified (IMAC Ni-NTA, dialysis; size exclusion chromatography for the later tests); not shown: His6, C-terminal, kept
B15: Nb10.17 (VHH)
VHH: B3 VHH with S30D, D31S, V79M, Y114I
notes: also called R3-17; group G10; source: E. coli WK6 periplasm, purified (IMAC Ni-NTA, dialysis)
B16: Nb10.21 (VHH)
VHH: B3 VHH with D31S, S54N, L100Q, D113E
notes: also called R2-21; group G10; source: E. coli WK6 periplasm, purified (IMAC Ni-NTA, dialysis)
B17: Nb10.66 (VHH)
VHH: B3 VHH with Q1D, A56G, T61S, D113N
notes: also called R2-66; group G10; source: E. coli WK6 periplasm, purified (IMAC Ni-NTA, dialysis)
B18: Nb11.16 (VHH)
VHH: QVQLVESGGGLVQAGGSLRLSCVASGGTFSNYRMAWFRQAPGKEREFVSLITRSGGSTYYADSVKGRFTISRDNAKNTVSLQMNTLKPEDTAVYTCAATPRFDSYSNYIRTNGYDYWGQGTQVTVSS
notes: also called R3-16; group G11; source: E. coli WK6 periplasm, purified (IMAC Ni-NTA, dialysis)
B19: Nb11.20 (VHH)
VHH: QVQLVESGGGLVQTGGSLRLSCAASGRTVSSYRMGWFRQAPGKEREFVCMITRSGFKTYCNDSVKGRFTISRDVAVNTVNLQMNSLKPEDTADYYCAATERWGTTATMTTANDYDYWGQGTQVTVSS
notes: also called R2-20; group G11; source: E. coli WK6 periplasm, purified (IMAC Ni-NTA, dialysis)
B20: Nb11.28 (VHH)
VHH: B18 VHH with G16A, V23A, K76Q, Y105G, N107Y, I109T
notes: also called R3-28; group G11; source: E. coli WK6 periplasm, purified (IMAC Ni-NTA, dialysis)
B21: Nb13.12 (VHH)
VHH: QVQLVESGGGLVQDEGSLRLSCAASGLIFSNYIVGWFRQTPGKEREFVAAIRWGGTSSYYSDSVKGRFTVSRDNAKNTLYLQMNNLKPEDTAVYYCATGPYYRGDYRVPDNMDYWGKGTQVTVSS
notes: also called R3-12; group G13; source: E. coli WK6 periplasm, purified (IMAC Ni-NTA, dialysis)
B22: Nb6.3 (VHH)
VHH: B6 VHH with T31S, Q53K, G56S, V57G, L65K, R88P, R100G
notes: also called R3-3; group G6; source: E. coli WK6 periplasm, purified (IMAC Ni-NTA, dialysis)
B23: Nb12.75 (VHH)
VHH: QVQLVESGGGLVQAGGSLRLSCAASLRTFSNAMGWFRQAPGKEREFVAVITWSGRVTNYSDSVKGRFTISKDNAKNTMYLQMNSLKLEDTAVYFCARESTFATANPKDYAYWGQGTQVTVSS
notes: also called R2-75; group G12; source: E. coli WK6 periplasm, purified (IMAC Ni-NTA, dialysis)
B24: Nb5.10 (VHH)
VHH: QVQLVESGGGLVQPGGSLRLSCAANVSSFRFAAMGWYRQVQGKRRELVATITRDGVSNYVEPMKGRFTISRDNGKNTVYLQMNHLQPEDTAVYYCAAKISPFGGTWTPDYWGQGTQVTVSS
notes: also called R3-10; group G5; source: E. coli WK6 periplasm, purified (IMAC Ni-NTA, dialysis)

These binders were tested against T2, recombinant mouse Clec4F (CLEC4F/CLECSF13), soluble extracellular domain Ala65-Gly548 (Mus musculus, UniProt P70194) (assay: not given). Conditions: not given.

B1: binds.
B2: binds.
B3: binds.

These binders were tested against Nb3.60 (alpaca (Vicugna pacos)) (assay: SDS-PAGE; 10% SDS-PAGE with Coomassie staining of the nanobody preparations after IMAC and dialysis). Conditions: not given.

B4 was tested, and the stoichiometry N was 2.

Each binder was assayed against Nb1.46 (alpaca (Vicugna pacos)) in the same assay as above. Conditions: not given.

B5 gave a stoichiometry N of 2.

Each binder was assayed against T2, recombinant mouse Clec4F … (assay: SPR; epitope binning: Clec4F immobilised on the chip; 1st nanobody injected (50 nM) to saturation, then a mix of 1st and 2nd nanobody; extra RU read). Conditions: both partners purified.

B6: binds.

What follows are binders tested against T1, recombinant mouse Clec4F (CLEC4F/CLECSF13), soluble extracellular domain Ala65-Gly548 (mouse) (assay: SPR; Biacore T200; 400 RU of recombinant mouse Clec4F coupled to a CM5 chip; nanobodies flown at 30 ul/min at 1-400 nM; 1:1 binding model). Conditions: not given.

Work on B7 yielded a koff of 0.0606 s⁻¹.

B7 gave a kon of 3.06e+07 M⁻¹ s⁻¹.

The binders below were run against T2, recombinant mouse Clec4F … in the same assay as above. Conditions: both partners purified.

Point of comparison: B18, Kd 0.169 nM. Against it:
- B4 — 3.7-fold higher, 0.618 nM
- B8 — 1.6-fold higher, 0.269 nM
- B9 — 12-fold higher, 2 nM
- B10 — 3-fold higher, 0.51 nM
- B11 — 2.8-fold higher, 0.47 nM
- B12 — 4.7-fold higher, 0.79 nM
- B13 — 160-fold higher, 26.7 nM
- B14 — 3.1-fold higher, 0.524 nM
- B15 — within 1.5-fold, 0.174 nM
- B16 — 2.9-fold higher, 0.484 nM
- B17 — 1.9-fold higher, 0.314 nM
- B19 — 2.4-fold higher, 0.403 nM
- B20 — 7.1-fold higher, 1.2 nM
- B21 — 6.6-fold higher, 1.11 nM
- B22 — 1.8-fold higher, 0.296 nM

Point of comparison: B20, koff 0.00654 s⁻¹. Against it:
- B4 — within 1.5-fold, 0.00475 s⁻¹
- B8 — 3-fold lower, 0.00221 s⁻¹
- B9 — 2.8-fold lower, 0.00231 s⁻¹
- B10 — 8.7-fold lower, 0.000756 s⁻¹
- B11 — 11-fold lower, 0.000612 s⁻¹
- B12 — 5.3-fold lower, 0.00124 s⁻¹
- B13 — 4.8-fold higher, 0.0317 s⁻¹
- B14 — 7.9-fold lower, 0.000825 s⁻¹
- B15 — 4.1-fold lower, 0.00158 s⁻¹
- B16 — 2.9-fold lower, 0.00223 s⁻¹
- B17 — 4.8-fold lower, 0.00135 s⁻¹
- B18 — 1.7-fold lower, 0.00392 s⁻¹
- B19 — 4.7-fold lower, 0.00139 s⁻¹
- B21 — 2.1-fold lower, 0.0031 s⁻¹
- B22 — 7.7-fold lower, 0.000848 s⁻¹

Point of comparison: B17, kon 4.28e+06 M⁻¹ s⁻¹. Against it:
- B4 — 1.8-fold higher, 7.69e+06 M⁻¹ s⁻¹
- B8 — 1.9-fold higher, 8.24e+06 M⁻¹ s⁻¹
- B9 — 3.7-fold lower, 1.16e+06 M⁻¹ s⁻¹
- B10 — 2.9-fold lower, 1.48e+06 M⁻¹ s⁻¹
- B11 — 3.3-fold lower, 1.3e+06 M⁻¹ s⁻¹
- B12 — 2.7-fold lower, 1.57e+06 M⁻¹ s⁻¹
- B13 — 3.6-fold lower, 1.19e+06 M⁻¹ s⁻¹
- B14 — 2.7-fold lower, 1.58e+06 M⁻¹ s⁻¹
- B15 — 2.1-fold higher, 9.08e+06 M⁻¹ s⁻¹
- B16 — within 1.5-fold, 4.62e+06 M⁻¹ s⁻¹
- B18 — 5.4-fold higher, 2.32e+07 M⁻¹ s⁻¹
- B19 — within 1.5-fold, 3.46e+06 M⁻¹ s⁻¹
- B20 — within 1.5-fold, 5.43e+06 M⁻¹ s⁻¹
- B21 — 1.5-fold lower, 2.79e+06 M⁻¹ s⁻¹
- B22 — within 1.5-fold, 2.87e+06 M⁻¹ s⁻¹

Molecular target: T2, recombinant mouse Clec4F …
Test: as above
Conditions: both partners purified
Remark: another data set of the same source

B5: binds.
B23: binds.
B24: binds.
